From article doi:10.1101/2022.07.20.500788

T1: AtAGO10+Hs-loop D795A (Arabidopsis, UniProt Q9XGW1 1-712+Q9UKV8:602-608+721-988, D795A;internal_change)
T1 sequence: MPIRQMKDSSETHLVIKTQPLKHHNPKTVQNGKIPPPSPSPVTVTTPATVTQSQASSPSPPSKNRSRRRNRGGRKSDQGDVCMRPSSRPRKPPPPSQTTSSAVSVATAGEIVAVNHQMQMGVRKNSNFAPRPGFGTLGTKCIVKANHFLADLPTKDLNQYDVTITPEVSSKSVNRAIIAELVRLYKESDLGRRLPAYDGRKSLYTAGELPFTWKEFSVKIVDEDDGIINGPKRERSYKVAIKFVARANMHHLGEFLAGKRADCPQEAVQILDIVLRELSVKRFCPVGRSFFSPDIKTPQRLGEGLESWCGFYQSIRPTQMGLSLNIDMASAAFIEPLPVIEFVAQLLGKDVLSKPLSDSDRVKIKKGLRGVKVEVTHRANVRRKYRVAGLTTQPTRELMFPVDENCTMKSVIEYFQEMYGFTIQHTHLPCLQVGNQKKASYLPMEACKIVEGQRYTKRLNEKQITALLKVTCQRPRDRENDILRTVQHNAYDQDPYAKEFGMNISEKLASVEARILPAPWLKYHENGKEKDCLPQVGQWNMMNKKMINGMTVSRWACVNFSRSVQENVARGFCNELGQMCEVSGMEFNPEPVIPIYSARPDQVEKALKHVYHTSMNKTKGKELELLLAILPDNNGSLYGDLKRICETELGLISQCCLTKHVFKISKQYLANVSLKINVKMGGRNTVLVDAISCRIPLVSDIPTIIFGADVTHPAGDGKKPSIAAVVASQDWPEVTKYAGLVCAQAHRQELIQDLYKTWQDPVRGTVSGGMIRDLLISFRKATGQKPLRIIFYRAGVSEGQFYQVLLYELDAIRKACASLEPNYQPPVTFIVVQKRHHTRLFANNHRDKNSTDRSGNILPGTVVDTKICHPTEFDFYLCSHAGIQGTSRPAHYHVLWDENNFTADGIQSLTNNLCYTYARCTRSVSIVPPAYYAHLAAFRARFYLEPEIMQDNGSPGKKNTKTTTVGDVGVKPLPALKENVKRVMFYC

T2: AtAGO10 D795A (wild-type PIWI loop) (Arabidopsis, UniProt Q9XGW1 1-988, D795A)
T2 sequence: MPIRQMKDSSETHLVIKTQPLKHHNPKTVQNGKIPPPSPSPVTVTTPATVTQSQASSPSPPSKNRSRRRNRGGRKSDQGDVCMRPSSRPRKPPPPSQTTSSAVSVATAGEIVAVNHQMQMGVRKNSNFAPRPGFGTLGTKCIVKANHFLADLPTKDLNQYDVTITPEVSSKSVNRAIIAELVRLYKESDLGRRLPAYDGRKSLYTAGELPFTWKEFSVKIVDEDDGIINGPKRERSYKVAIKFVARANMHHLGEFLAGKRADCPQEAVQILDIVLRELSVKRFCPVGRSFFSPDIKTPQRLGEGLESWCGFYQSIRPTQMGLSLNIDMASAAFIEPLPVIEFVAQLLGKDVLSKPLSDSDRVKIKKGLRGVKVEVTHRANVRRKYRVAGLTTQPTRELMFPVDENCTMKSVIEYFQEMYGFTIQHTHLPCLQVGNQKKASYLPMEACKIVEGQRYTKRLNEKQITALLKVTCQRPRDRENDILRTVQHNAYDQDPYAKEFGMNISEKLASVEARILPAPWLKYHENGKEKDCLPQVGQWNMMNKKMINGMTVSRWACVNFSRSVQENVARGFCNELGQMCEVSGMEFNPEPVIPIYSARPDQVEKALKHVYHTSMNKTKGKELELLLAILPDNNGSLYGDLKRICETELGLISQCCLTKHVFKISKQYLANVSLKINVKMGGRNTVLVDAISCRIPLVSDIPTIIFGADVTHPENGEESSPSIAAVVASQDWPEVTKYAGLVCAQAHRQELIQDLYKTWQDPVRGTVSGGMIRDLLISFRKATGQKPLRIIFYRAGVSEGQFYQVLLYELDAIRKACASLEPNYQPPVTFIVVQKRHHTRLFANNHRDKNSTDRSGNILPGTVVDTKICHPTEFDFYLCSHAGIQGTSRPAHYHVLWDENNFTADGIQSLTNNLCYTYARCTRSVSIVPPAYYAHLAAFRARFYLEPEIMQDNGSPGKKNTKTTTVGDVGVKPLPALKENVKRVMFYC


Columns and labels:
Test in all cases: filter binding
HsAGO2 = HsAGO2 (human, UniProt Q9UKV8 1-859)
AtAGO10+Hs-loop D795A = target: T1, AtAGO10+Hs-loop D795A
[1] = target: T2, AtAGO10 D795A (wild-type PIWI loop)
HsAGO2+At-loop = HsAGO2+At-loop (human, UniProt Q9UKV8 1-601+Q9XGW1:713-720+609-859, internal_change)

Binder | Kd (HsAGO2) | Kd (AtAGO10+Hs-loop D795A) | Kd [1] | Kd (HsAGO2+At-loop)
guide RNA / 2-8 target (mixed) RNA 1: UGGAGUGUGACAAUGGUGUUU RNA 2: AAAAAAAAAAAAAACACUCCAAA | 0.086 ± 0.005 nM | 0.38 ± 0.03 nM | 1.33 ± 0.14 nM | 6.43 ± 0.24 nM
guide RNA / 2-21 target (mixed) RNA 1: UGGAGUGUGACAAUGGUGUUU RNA 2: AAACACCAUUGUCACACUCCAAA | 0.01 ± 0.001 nM | 0.095 ± 0.012 nM | 0.04 ± 0.007 nM | 0.005 ± 0.001 nM
